Settings: Saccharomyces cerevisiae (strain ATCC 204508 / S288c), 25 °C, GdnHCl, CD, NaCl 40 mM
[1] = pH 4, acetate-HCl 20 mM, structure 1YCC
[2] = pH 5, acetate-HCl 20 mM, structure 1YCC
[3] = pH 5.8, MES 20 mM, structure 1YCC
[4] = pH 6.12, MES 20 mM, structure 1YCC
[5] = pH 6.5, MES 20 mM, structure 1YCC
[6] = pH 7.2, Tris 20 mM, structure 1YCC
[7] = pH 7.5, Tris 20 mM, structure 1YCC

Chain of Cytochrome c isoform 1 wild type, P00044 (P00044 whole entry, canonical isoform): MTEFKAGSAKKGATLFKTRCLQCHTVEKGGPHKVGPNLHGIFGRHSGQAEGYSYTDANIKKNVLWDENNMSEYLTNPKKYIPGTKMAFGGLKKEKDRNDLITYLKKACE
Chain of Cytochrome c isoform 1 K79H, P00044 (P00044 whole entry K79H, canonical isoform): as the sequence (P00044 whole entry, canonical isoform) above, with K79H counted along it

Cytochrome c isoform 1 wild type, P00044
denaturant m value (pH 4, acetate-HCl 20 mM): 4.1 kcal/mol/M | denaturant midpoint (higher = more stable) (pH 4, acetate-HCl 20 mM): 0.66 M | unfolding free energy (pH 4, acetate-HCl 20 mM): 2.72 kcal/mol | denaturant m value (pH 4.5, acetate-HCl 20 mM): 4.28 kcal/mol/M | denaturant midpoint (higher = more stable) (pH 4.5, acetate-HCl 20 mM): 0.96 M | unfolding free energy (pH 4.5, acetate-HCl 20 mM): 4.11 kcal/mol | denaturant m value (pH 5, acetate-HCl 20 mM): 4.42 kcal/mol/M | denaturant midpoint (higher = more stable) (pH 5, acetate-HCl 20 mM): 1.08 M | unfolding free energy (pH 5, acetate-HCl 20 mM): 4.77 kcal/mol | denaturant m value (pH 5.8, MES 20 mM): 4.84 kcal/mol/M | denaturant midpoint (higher = more stable) (pH 5.8, MES 20 mM): 1.09 M | unfolding free energy (pH 5.8, MES 20 mM): 5.28 kcal/mol | denaturant m value (pH 6.12, MES 20 mM): 4.86 kcal/mol/M | denaturant midpoint (higher = more stable) (pH 6.12, MES 20 mM): 1.16 M | unfolding free energy (pH 6.12, MES 20 mM): 5.66 kcal/mol | denaturant m value (pH 6.5, MES 20 mM): 4.45 kcal/mol/M | denaturant midpoint (higher = more stable) (pH 6.5, MES 20 mM): 1.23 M | unfolding free energy (pH 6.5, MES 20 mM): 5.44 kcal/mol | denaturant m value (pH 7.2, Tris 20 mM): 4.31 kcal/mol/M | denaturant midpoint (higher = more stable) (pH 7.2, Tris 20 mM): 1.09 M | unfolding free energy (pH 7.2, Tris 20 mM): 4.68 kcal/mol | denaturant m value (pH 7.5, Tris 20 mM): 4.92 kcal/mol/M | denaturant midpoint (higher = more stable) (pH 7.5, Tris 20 mM): 1.15 M | unfolding free energy (pH 7.5, Tris 20 mM): 5.66 kcal/mol

Cytochrome c isoform 1 K79H, P00044
denaturant m value [1]: 3.33 kcal/mol/M | denaturant midpoint (higher = more stable) [1]: 0.51 M | unfolding free energy [1]: 1.71 kcal/mol | denaturant m value [2]: 3.67 kcal/mol/M | denaturant midpoint (higher = more stable) [2]: 0.98 M | unfolding free energy [2]: 3.6 kcal/mol | denaturant m value [3]: 3.54 kcal/mol/M | denaturant midpoint (higher = more stable) [3]: 1.05 M | unfolding free energy [3]: 3.7 kcal/mol | denaturant m value [4]: 3.31 kcal/mol/M | denaturant midpoint (higher = more stable) [4]: 1.09 M | unfolding free energy [4]: 3.6 kcal/mol | denaturant m value [5]: 3.14 kcal/mol/M | denaturant midpoint (higher = more stable) [5]: 1.12 M | unfolding free energy [5]: 3.52 kcal/mol | denaturant m value [6]: 2.97 kcal/mol/M | denaturant midpoint (higher = more stable) [6]: 1.15 M | unfolding free energy [6]: 3.41 kcal/mol | denaturant m value [7]: 3.2 kcal/mol/M | denaturant midpoint (higher = more stable) [7]: 1.15 M | unfolding free energy [7]: 3.68 kcal/mol

— FireProtDB (doi:10.1021/bi981698k)
